assay: yeast display, Sf9 membrane polyspecificity reagent, FACS + sequencing; frameworks hold sequencing errors
Procedure, shortened: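 Nanobodies from a synthetic yeast display library (Saccharomyces cerevisiae BJ5465), induced 36–48 hours with galactose, were stained 1 hour at 4 °C with 10% biotinylated, detergent-solubilized Sf9 membrane reagent, enriched on streptavidin microbeads, then FACS-sorted. Anti-HA (expression) and streptavidin (reagent binding) fluorescence set low and high (top ~1%) gates. Polyreactivity labels come from the gate of origin. Genes were colony-PCR amplified, MiSeq 2 × 250 sequenced and filtered by CDR length.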

Sequence | polyreactivity (PSR sort gate)
QVQLVESGGGLVQAGGSLRLSCAASGIIFKRYAMGWYRQAPGKERELVATITRDGRTSYADSVKGRFTISRDNAKNTVYLQMNSLKPEDTAVYYCNKRGTYAPPTPGNLFDYWGQGTQVTVSS | low polyreactivity
QVQLVESGGGLVQAGGSLRLSCAASGIIFKWYGMGGYRQAPGKERELVAGITWRTGSTYYADSVKGRFTISRDNAKNTVYLQMNSLKPEDTAVYYCAARLYTYPKGKYWGQGTQVTVSS | high polyreactivity
QVQLVESGGGLVQAGGSLRLSCAASGIIFLDNAMVWYRQAPGKERELVAAITTGGITYYADSVKGRFTISRDNAKNTVYLQMNSLKPEDTAVYYCAADNEWPRYDYWGQGTQVTVSS | low polyreactivity
QVQLVESGGGLVQAGGSLRLSCAASGIIFLENAMGWYRQAPGKERELVAGISSGGNTNYADSVKGRFTISRDNAKNTVYLQMNSLKPEDTAVYYCNTDWYLPRYVLLGYFSGTEDYWGQGTQVTVSS | low polyreactivity
QVQLVESGGGLVQAGGSLRLSCAASGIIFLNYAMGWYRQAPGKERELVAAITTSGGNTYYADSVKGRFTISRDNAKNTVYLQMNSLKPEDTAVYYCAATDLYFWYPYWFAFEYDYWGQGTQVTVSS | high polyreactivity
QVQLVESGGGLVQAGGSLRLSCAASGIIFLWYAMGWYRQAPGKERELVAAISRTGSSTYYADSVKGRFTISRDNAKNTVYLQMNSLKPEDTAVYYCAAAYYSKRSWRFDYWGQGTQVTVSS | high polyreactivity
QVQLVESGGGLVQAGGSLRLSCAASGIIFLYYAMGWYRQAPGKERELVAAISSGGSTYYADSVKGRFTISRDNAKNTFYLQLNSLKPEDTAVYYCAVGRVGRFYYWGQGTQVSVSS | high polyreactivity
QVQLVESGGGLVQAGGSLRLSCAASGIIFNGNTMGWYRQAPGKERELVAAITSGGTTSYADSVKGRFTISRDNAKNTVYLQMNSLKPADTAVYYCAADHPAFGPGYSFDYWGQGTQVTVSS | low polyreactivity
QVQLVESGGGLVQAGGSLRLSCAASGIIFNSYAMGWYRQAPGKERELVATISGSGGSTYYADSVKGRFTISRDNAKNTVYFQMNSLKPEDTAVYSCAARTGRYYRRYDYWGQGTQVTVSS | high polyreactivity
QVQLVESGGGLVQAGGSLRLSCAASGIIFNYYAMGWYRQAPGKERELVAAISASGGSTYYADSVKGRFTISRDNAKNTVYLQMNSLKPEDTAVYYCNAAVLYRQYGRGDYWGQGTQVTVSS | low polyreactivity
QVQLVESGGGLVQAGGSLRLSCAASGIIFNYYAMGWYRQAPGKERELVAAISFSGGRTYYADSVKGRFTISRDNAKNTVYLQMNCLKPEDTAVYYCNAVYRNSILAFPGEYDYWGQGTQVTVSS | high polyreactivity
QVQLVESGGGLVQAGGSLRLSCAASGIIFPAYAMGWYRQEPGKDRELVAAISKRGGSTYYADSVKGRFTISRDNAKNTVYLQMNSLKPEDTAVYYCNVLLTQGATVGEYGYWGQGTQVTVSS | high polyreactivity
QVQLVESGGGLVQAGGSLRLSCAASGIIFPEYDRGWYRQAPGKERELVAAITKSDGRTYYADSVKGRFTISRDNAKNTVYLQMNSLKPEDTAVYYCNADPRVVAYLGFDSWGQGTQVTVSS | low polyreactivity
QVQLVESGGGLVQAGGSLRLSCAASGIIFPFYMGWYRQAPGKEREFVADITYSGGSTYYADSVKGRFTISRDNAKNTVYLQMNSLKPEDTAVYYCAAKFYWRGQSFRSGNFYWGQGTQVTVSS | high polyreactivity
QVQLVESGGGLVQAGGSLRLSCAASGIIFPGNAMGWNSQAPGKVRELVAAITSSDGSTYYADSVKGRFTISRDNAKNTVYVQMNSLKPEDTALYYCAADFKGLFSSELDYWGQGTQVTVSS | low polyreactivity
QVQLVESGGGLVQAGGSLRLSCAASGIIFPGYAMGWYRQAPGKERELVAAISSGGDTYYADSVKGRFTISRDNAKNTVYLQMNSLKPEDTAVYYCAAEYGLYAPGYYYWGQGTQVTVSS | low polyreactivity
QVQLVESGGGLVQAGGSLRLSCAASGIIFPGYAMGWYRQAPGKVRELVAAISSGGDTYYADSVKGLFTISRDNAKNTVYLQMNSLNPEDTAVYYCTAAQLSSDRTSTYGYWGQGTKVTVSS | low polyreactivity
QVQLVESGGGLVQAGGSLRLSCAASGIIFPYNAMGWYRQAPGKERELVAAITYRDGSTYYADSVKGRFTISRDNAKNTVYLQMNSLKPEDTAVYYCAADRYVYWDLYGYWGQGTQVTVSS | low polyreactivity
QVQLVESGGGLVQAGGSLRLSCAASGIIFPYYAMGWYRQAPGKERELVAAIDWSGTSTYYADSVKGRFTISRDNAKNTVYLQMNSLKPEDTAVYYCAADYPQAGLLYYYWGQGTQVTVSS | low polyreactivity
QVQLVESGGGLVQAGGSLRLSCAASGIIFPYYTMGWYRQAPGKERELVAAISTSGGSTYYADSVKGRFTISRDNAKNTVYLQMNSLKPEDTAVYFCAAELSYDYSHDYWGQGTQVTVSS | high polyreactivity
QVQLVESGGGLVQAGGSLRLSCAASGIIFQGNAMGWYRQAPGKERELVAAISSGGSTYYADSVKGRFTISRDNAKNTVYLQMNSLKPEDTAVYYCNAGAYVRYDYWGQGTQVTVSS | low polyreactivity
QVQLVESGGGLVQAGGSLRLSCAASGIIFQRNAMGWYRQAPGKERELVAAISASGGSTNYADSVKGRFTISRDNAKNTVYLQMNSLKPEDTAVYYCAVPARGTFLLRDGGRAEFDYWGQGTQVTVSS | low polyreactivity

Sequence | polyreactivity (PSR sort gate)
QVQLVESGGGLVQAGGSLRLSCAASGIIFQRNAMGWYRQAPGQERELVAAISSGGRTYYADSVKGRFTISRDNAKNTVYLQMNSLKPEDTAVYYCNAASYSRGRARYDYWGQGTQVTVSS | high polyreactivity
QVQLVESGGGLVQAGGSLRLSCAASGIIFQYNAMGWYRQAPGKEREFVAAISYGGTSTYYADSVKGRFTISRDNAKNTVYLQMNSLKPEDTAVYYCAADYQGYTPSDGRYYWGQGTQVTVSS | low polyreactivity
QVQLVESGGGLVQAGGSLRLSCAASGIIFQYYAMGWYRQAPGKERELVAAISWSGGSTYYADSVKGRFTISRDNAKNTVYLQMNRLKPEDTAVYYCAARSRSYWPYEGDYWGQGTQVTVSS | low polyreactivity
QVQLVESGGGLVQAGGSLRLSCAASGIIFQYYAMGWYRQAPGKERELVAAISWSGGSTYYADSVKGRFTISRDNAKNTVYLQMNSLKPEDTAVYYCAARSRSYWPYEGDYWGQGTQVTVSS | low polyreactivity
QVQLVESGGGLVQAGGSLRLSCAASGIIFQYYVMGWYRQAPGKERELVAAIDKSGGSTYYADSVKGRFTISRDNAKNTVYLQMNSLKPEDTAVYYCAATSYAHKYYGYFGAIKYEYWGQGTQVTVSS | low polyreactivity
QVQLVESGGGLVQAGGSLRLSCAASGIIFQYYVMGWYRQAPGKERELVAAIDKSGGSTYYADSVKGRFTISRDNAKNTVYLQMNSLKPEDTAVYYCNRDRGWTRFYVYSTGAWLYDYWGQGTQVTVSS | low polyreactivity
QVQLVESGGGLVQAGGSLRLSCAASGIIFRAYAMGWYRQAPGKERELVAAITSRGGSTYYADSVKGRFTISLDNAKNTVYLQKNSLKPEDTAVYYCAADFTIPYWDANFDYWGQGTQVTVSS | low polyreactivity
QVQLVESGGGLVQAGGSLRLSCAASGIIFRDYAMGWYRQAPGKERELVAAINLDGTSTYYADSVKGRFTISRDNAKKTVYLQMNSLKPEDTAVYYCAAEYDNADYINYFLDMYYWGQGTQVTVSS | low polyreactivity
QVQLVESGGGLVQAGGSLRLSCAASGIIFRGYFMGWYRQATGKERELVAAISTSGGRTSYADSVKGRFTISRDNAKNTVYLQMNSLKPEDTAVYYCAARPLYSYSHWGYGYWGQGTQVTVSS | high polyreactivity
QVQLVESGGGLVQAGGSLRLSCAASGIIFRGYVMGWYRQAPGKERELVADISRGGSTYYADSVKGRFTISRDNAKNTVYLQMNSQKPEDTAVYYCAKDYYACYWEMDYWGQGTQVTVSS | low polyreactivity
QVQLVESGGGLVQAGGSLRLSCAASGIIFRLYAMGWYRQAPGTERELVAAISRRGDSTYYADSVKGRFTISRDNAKNTGYVQMNSLKPEDTAVYYCAAVYVPYYWLGRSRGLDYWGQGTQVSVSS | high polyreactivity
QVQLVESGGGLVQAGGSLRLSCAASGIIFRPYAMGWYRQAPGKERELVAAITGSGVSTYYADSVKGRFTISRDNAKNTVYLQMNSLKPEDTAVYYCAKRYNRGYHRYDYWGQGTHVTVSS | low polyreactivity
QVQLVESGGGLVQAGGSLRLSCAASGIIFRQYAMGWSRQEPGKERELVAGITGTGSTYYADSVKGRFTISRDNAKNTVYLQLNSLKPEETAVYYCATRSFRVFYPYPYDYWGQGTQVTVSS | high polyreactivity
QVQLVESGGGLVQAGGSLRLSCAASGIIFRRYAMGWYRQGPGKERELVAAITHRGSTYYADSVKGRFTISRDNAKNTVYLQMNSLKPEDTAVYYCAADGFTRWGRYDYWGQGTQVTVSS | high polyreactivity
QVQLVESGGGLVQAGGSLRLSCAASGIIFRRYARGWYRQAPGKERELVAAITSGGDTNYADSVKGRFTISRDNAKNTVYLQMNSLKPEDTAVYYSNAGLRGVRRYGFDYWGQGTQVTVSS | high polyreactivity
QVQLVESGGGLVQAGGSLRLSCAASGIIFRTYAMGWYRQAPGKERELVAAISGTTGSKYYADSVKGRFTISRDNAKNTVYLQMNSLKPEDTAVYYCAADFYWYIRYDYWGQGTQVTVSS | low polyreactivity
QVQLVESGGGLVQAGGSLRLSCAASGIIFRVYAMGWYRQAPGKERELVAAITKGGGRTYYADSVKGRFTISRDIAKNTVYLQMNCLIPEDTAVYYCAARSSSRFEYWGQGTEVTVSS | high polyreactivity
QVQLVESGGGLVQAGGSLRLSCAASGIIFRWYTMGWFRQAPGKERELVAAITGRGGSTYYADSVKGRFTISRDNAKNTFYLQMNSLIPEDTAVYYCAAEGVRIGTRYDYWGQGTLVTVSS | high polyreactivity
QVQLVESGGGLVQAGGSLRLSCAASGIIFRWYTMGWYRQAPGKERELVAAISSGGSTYYADSVKGRFTISRDNAKNTVYLQMNSLKPEDTAVYYCAARYITTYAYGYWGQGTQVTVSS | high polyreactivity
QVQLVESGGGLVQAGGSLRLSCAASGIIFRWYTMGWYRQAPGKERELVAAISTSTGSTYYADSVKGRFTISRDNAKNTVYLQMNSLKPEDTAVYYCAADYAYWNYESYYWGQGTQVTVSS | high polyreactivity
QVQLVESGGGLVQAGGSLRLSCAASGIIFRYAMGWYRQAPGKERELVARITVGSTYYADSVKGRFTISRDNAKNTVYLQMNSLKPEDTAVYYCAARVQHYLATDDYWGQGTQVTVSS | low polyreactivity

Source: the nanobody polyreactivity screen of Harvey et al. (2022)
